In article PMC10482388, “A novel homeostatic mechanism tunes PI(4,5)P2-dependent signaling at the plasma membrane” (Journal of Cell Science, 2023):

Molecular target: (Gly)5–PIP5K1A (aa 1–546), purified human PIP5K1A (human, UniProt Q99755 1-546)
Test: cell-based or functional assay

Sequence of (Gly)5–PIP5K1A (aa 1–546), purified human PIP5K1A (Q99755 other isoform, or with tags, fused parts or gaps): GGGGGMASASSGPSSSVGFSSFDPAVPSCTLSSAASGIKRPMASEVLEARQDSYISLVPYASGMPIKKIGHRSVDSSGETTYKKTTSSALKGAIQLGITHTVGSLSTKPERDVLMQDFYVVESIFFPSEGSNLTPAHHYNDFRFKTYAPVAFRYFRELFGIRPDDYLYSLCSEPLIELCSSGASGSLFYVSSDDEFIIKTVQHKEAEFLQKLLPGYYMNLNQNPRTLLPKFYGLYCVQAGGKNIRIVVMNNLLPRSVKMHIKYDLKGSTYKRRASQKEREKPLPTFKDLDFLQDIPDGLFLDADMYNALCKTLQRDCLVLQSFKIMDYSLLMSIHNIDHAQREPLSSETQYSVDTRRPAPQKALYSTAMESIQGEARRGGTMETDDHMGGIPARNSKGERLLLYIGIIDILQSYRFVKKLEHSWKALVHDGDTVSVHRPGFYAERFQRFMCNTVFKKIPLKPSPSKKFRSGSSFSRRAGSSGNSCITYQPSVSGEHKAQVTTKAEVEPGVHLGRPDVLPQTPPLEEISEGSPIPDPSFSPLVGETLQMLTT

kinetics of PI(4,5)P2 production on PI4P-containing supported lipid bilayers, 1 nM PIP5K1A with or without 50 nM PIP4K2A; time to completion of the reaction: 2 fold (reaction completion time)
B1: (Gly)5–PIP4K2A (aa 1–406), purified human PIP4K2A (enzyme)
chain: GGGGGMATPGNLGSSVLASKTKTKKKHFVAQKVKLFRASDPLLSVLMWGVNHSINELSHVQIPVMLMPDDFKAYSKIKVDNHLFNKENMPSHFKFKEYCPMVFRNLRERFGIDDQDFQNSLTRSAPLPNDSQARSGARFHTSYDKRYIIKTITSEDVAEMHNILKKYHQYIVECHGITLLPQFLGMYRLNVDGVEIYVIVTRNVFSHRLSVYRKYDLKGSTVAREASDKEKAKELPTLKDNDFINEGQKIYIDDNNKKVFLEKLKKDVEFLAQLKLMDYSLLVGIHDVERAEQEEVECEENDGEEEGESDGTHPVGTPPDSPGNTLNSSPPLAPGEFDPNIDVYGIKCHENSPRKEVYFMAIIDILTHYDAKKKAAHAAKTVKHGAGAEISTVNPEQYSKRFLDFIGHILT
modifications: fluorescently labelled LPETGG peptide (Alexa Fluor 488, Alexa Fluor 647 or Cy5) ligated by sortase onto the N-terminal (Gly)5 motif
